From article PMC6954389 (Nucleic Acids Research, 2019)

Target: T1, His6-σ^A_(C170), C-terminal residues 359–528 of σ^A, wildtype (M. tuberculosis, UniProt P9WGI1 359-528)
T1 sequence: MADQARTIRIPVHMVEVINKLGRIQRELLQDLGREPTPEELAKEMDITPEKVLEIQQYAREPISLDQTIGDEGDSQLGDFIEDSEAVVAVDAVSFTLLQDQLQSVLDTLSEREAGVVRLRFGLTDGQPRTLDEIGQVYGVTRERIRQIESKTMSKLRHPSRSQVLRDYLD
Experiment: pull-down

B1: tagless wildtype WhiB1, purified (from His6-SUMO-WhiB1) (natural protein)
chain: MDWRHKAVCRDEDPELFFPVGNSGPALAQIADAKLVCNRCPVTTECLSWALNTGQDSGVWGGMSEDERRALKRRNARTKARTGV
binding result: binds
